The results in this text go back to the nanobody polyreactivity screen of Harvey et al. (2022).

The series can be described thus: yeast display, Sf9 membrane polyspecificity reagent, FACS + sequencing; frameworks hold sequencing errors. Summed up: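 Using colony PCR, genes from sorted yeast display clones were amplified, then sequenced on MiSeq at 2 × 250 and filtered by CDR length. The clones had been stained with 10% biotinylated, detergent-solubilized Sf9 membrane reagent for 1 hour at 4 °C and sorted by FACS into low and high (top ~1%) gates on anti-HA and streptavidin fluorescence. Polyreactivity labels come from the gate of origin.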
As to “HVQLQESGGGLVQPGGSLRLSCAASGNISFSRNMGWYRQAPGKERELVAAIDRGAITYYGDSVKGRFTISRDNAKNTVYLQIYSLKPEDTAVYYCAAEYHDGWDHRYWGQGTQVTVSS”, the “polyreactivity (PSR sort gate)” value was “high polyreactivity”.
Regarding “HVQLVESGGGFVQAGGSLRLICAASVRNFDVYSMGWYRQAPGKERELVAAISRRGGSTYYADSVKGRFTISRDNAKNTVYLQMNRLKPEDTAVYYCAAQSRQAYMTYGYWGLGTQVTVSS”, the “polyreactivity (PSR sort gate)” value is listed as “high polyreactivity”.
As for “HVQLVESGGGIVQAGGILRLSCAASGRIFSVYTMGWYRKAPGQERELVAAISSGASTNYADSVKGRFTISRDNAKNTVYLQMNSLKPEDTAVYYCAKEYGIYTDTPYYYWGQGTQVTVSS”, the entry is “low polyreactivity”; as for “HVQLVESGGGLFQAGGSLRLCCAASGSISGLYAMGWYRQAPGKERELVAAITLRDGTTSYADSVKGRFTISRDNAKITVYLQMNSLKPEDTDVYYCAAVDRDSKCSVPTLDHWGQGTQVTVSS”, “low polyreactivity”; as for “HVQLVESGGGLGQAGGSLRLSCAASGSIFYVNAIGWYRQAPGKERELVADITWSGGSTYYADSVKGRFTISRDHAQTTVYLQMNSLKPEDTAVYYCAAKVKHWYYPYYYWGQGTQVTVSS”, “low polyreactivity”.
Consider “HVQLVESGGGLVQAGGILRLSFAASGFIFCYYTMGWYRQATGKERELVAAINSGGSTNYADSVKGRFTISRDNAKNTVYLQMNSLKPEDTAVYYCAALVWYSGELFYYWGQGTQVTVSS”, for which the “polyreactivity (PSR sort gate)” value is given as “low polyreactivity”.
Under “HVQLVESGGGLVQAGGRLRLSCAASGGTFWHYAMGWYRKAPGKERELFAAIRWRGVRTYYADSVKGRFTISRDNAKNTVYLQMNSLKPEDTAVYYCASTTWRSGRYNYWGQGTQVTVSS” stands “high polyreactivity”; under “HVQLVESGGGLVQAGGSLRISCAASGRTLEQYAMGWYRQAPGKERELVAAINKSGARTYYADSVKGRFTISRDNAKNTVYLQMNSLKPEDTAVYYCNTVGPCYLFDYWGQGTQVTVSS”, “high polyreactivity”.
Under “HVQLVESGGGLVQAGGSLRLSCAASARIFVTYAMGWYREAPGKETELVAAISSRGGRTNYADSVKGRFTISRDNAQNTVYLQMNSLKPEYTAVYYFAARYWYIYNYDYWGQGTQVTVSS” stands “high polyreactivity”.
As for “HVQLVESGGGLVQAGGSLRLSCAASGFTFPLYALGWYRPAPGKEREVVAAIRSSGGSTYYADSVKGRFTISRDKAKNTVNLQMNSLKPEDTAVSYCAKVRSTRRLDTYYYWGQGTQVTVSS”, the entry is “high polyreactivity”.
As for “HVQLVESGGGLVQAGGSLRLSCAASGFTFYVYAMGWYRQAPGTERELVAAISRGGSTYYADSVKGRFTISRDNAKNTVYLQMNSLKPEDTAVYYCNRVPSVSSSKVRYSNGFDYWGQGTQVTVSS”, the “polyreactivity (PSR sort gate)” value is listed as “low polyreactivity”.
With “HVQLVESGGGLVQAGGSLRLSCAASGGTFGRYARGWYRQAPGKERELVAAISSGGSTNYADSVKGRFTISRDNAKYTVYLLMNSLKPEDTAVYYCAADGPSGVRQYDYWGQGTQVTVSS”, the “polyreactivity (PSR sort gate)” value is “low polyreactivity”.
As for “HVQLVESGGGLVQAGGSLRLSCAASGIIFRYKALGWYREAPGKERELVAAISVSGGSTYYADSVKGRFTISRDNAKNTVDLQMNSLKPEDTAVDYCAALLYRYGVHQAEHDYWGQGTQVTVSS”, the “polyreactivity (PSR sort gate)” value was “high polyreactivity”.
As to “HVQLVESGGGLVQAGGSLRLSCAASGLTYPRYTMGWYRQAPGKESELVAAISSSTGTTNYADSVKGRFTISRDNAKINVYLQMYSLKPEDTAVYYCAAGGSLYAYGYRSRYGYWGQGTQVTVSS”, the “polyreactivity (PSR sort gate)” value was “low polyreactivity”.
Consider “HVQLVESGGGLVQAGGSLRLSCAASGNICYGYAMGGYRQAPGKERELVARINWSGSRTYYADSVKGRFTISRDNAKNTVYLQMNSLKPDDTAVYYCNTSTSRVPGNGDYWGQGTQVTVSS”, for which the “polyreactivity (PSR sort gate)” value is given as “high polyreactivity”.
Under “HVQLVESGGGLVQAGGSLRLSCAASGNTFTEYAMGWYRQAPGKERELVASITGSGGSTYADSVRGRFTISRDNAKNTVYLQMNSLKPEDTAVYYCAKDPRYEYVGSEYGYWGQGTQVTVSS” stands “low polyreactivity”.
As for “HVQLVESGGGLVQAGGSLRLSCAASGRIFGYYAIGWYRQATRKERELVAAITINGRRTYYADSVKGRFTISRDNAKNTVYLQMKSLKPEDTAVYLCTATSRYNRLGYWGQGTQVSVSS”, the “polyreactivity (PSR sort gate)” value was “high polyreactivity”.
For “HVQLVESGGGLVQAGGSLRLSCAASGRIFRKYAMGWYRQAPGKERELVAVITGSAGSTYYADSVKGRFTISRDNAKNTVYLQMNSLKPEDTAVYYCAKVSTSWDYGIYPFDEGYYWGQGTKVTVSS”, the “polyreactivity (PSR sort gate)” value is on record as “low polyreactivity”.
As to “HVQLVESGGGLVQAGGSLRLSCAASGRISDRYAMGWSRQAPGKEREFVAAISWSGASTYYADSVKGRFTISRDNAKNTVYLQMNSLKAEDTAVYYCAARRRHKYDYWGQGTQVTVSS”, the “polyreactivity (PSR sort gate)” value is listed as “high polyreactivity”.
For the sequence “HVQLVESGGGLVQAGGSLRLSCAASGRNYYTYTMGRSRQAPGKEKQLVATITVGTRTNYADSVKGRFTISRDNAQNTVYLQMNSLKRVDTAVYYCNAEWSSKRFTGDDYWGQGTQVTVSS”, the “polyreactivity (PSR sort gate)” value was “low polyreactivity”.
As for “HVQLVESGGGLVQAGGSLRLSCAASGRTFGIYAMGWYRKAPGKERELVAAITGRGGSTHYADSVKGRFTISRDNAKNTVYLQMNSLKPEDTAVYYCAADYRYNRGITSNKDYDYWGQGTQVTVSS”, the entry is “low polyreactivity”; as for “HVQLVESGGGLVQAGGSLRLSCAASGRTFIYNAMGWYRQAPGKEREFVAANTWSGATTRYADSVKGRFTISRDNAKNTVYLEMNSLKPEDTAVYYCAKGGFYYYGWRSSMDYWGQGTQVTVSS”, “high polyreactivity”.
Consider “HVQLVESGGGLVQAGGSLRLSCAASGRTFRLYAMGRYRQATGKEMELVARIRWRGGTTYFADSVKGRFTISRDNAKNTVYLQMNRLKPEDTAVYYCAARAYPTWRTYYYCGQGTQVTVSS”, for which the “polyreactivity (PSR sort gate)” value is “high polyreactivity”.
“HVQLVESGGGLVQAGGSLRLSCAASGSIFDSYVMGWYRQAPGTERELVAAITYSGGSTYADSVKGRFTISRDNAKNTVYLQMNSLKPEDTAVYYCAAASYFYLYLLEDYWGQGTQVTVSS”: the “polyreactivity (PSR sort gate)” value is recorded as “low polyreactivity”.
“HVQLVESGGGLVQAGGSLRLSCAASGSIFVLNAMGWYRQAPGKERELVAAITNVGSTYYADSVKGRFTISRDNAKNTVYLQMNSLKPEDTAVYYCNADPGEVLVGYDYWGQGTQVTVSS”: the “polyreactivity (PSR sort gate)” value is recorded as “low polyreactivity”.
Under “HVQLVESGGGLVQAGGSLRLSCAASGSIFYGNTMGWYRQAPGKEREFVAAINKSDDSTYYADSVKGRFTISRDNAKNTVYLQMNSLKPEDTAVYYCWGPGTQVTVSS” stands “low polyreactivity”; under “HVQLVESGGGLVQAGGSLRLSCAASGSIYALYDLGRYRQAPGKERELVASITGSGGNTYYADSVKGRFTISRDNAKNTVYLQMNSLKPEDTAVYYCAADFRYAGYSYDYWGQGTQVSVSS”, “low polyreactivity”.
For the sequence “HVQLVESGGGLVQAGGSLRLSCAASGSTCRYYARGWYRQAPGKERELGAAISGRGARTYYADSVKGRFTISRDNAKNTVYLQMNSLKPEDTAVYYCAAVGYRYRHSRYYWGQGTQVTVSS”, the “polyreactivity (PSR sort gate)” value is recorded as “high polyreactivity”.
Under “HVQLVESGGGLVQAGGSLRLSCAASGSTFAGNAMGWYRQAPGKERELVAAITFSGGRTDYADSVKGRFTISRDNAKNTVYLQMNSLKPEDTAVYYCAAPADDTVHYQNYYWGQGTQVTVSS” stands “low polyreactivity”; under “HVQLVESGGGLVQAGGSLRLSCAASGSTFGRYVMGWHRQAPGKERELVAAISKNAGSTYYADSVKGRFTISRDNAKNTVYLKMASLKPEDTAVYYCAADWRTKGYDSLGQGTQVTVSS”, “high polyreactivity”.
In the case of “HVQLVESGGGLVQAGGSLRLSCAASGSTFSGYAMGWYRQAPGKERELVAAISSSGGSTYYADSVKGRFTISRDNAKNTVYLQMNSLKPEDTAVYYCNADEYRGTSTEFEYWGQGTQVTVSS”, the “polyreactivity (PSR sort gate)” value is recorded as “high polyreactivity”.
As for “HVQLVESGGGLVQAGGSLRLSCAASGTFYKNAMGWYRQAPGKERELVAAISWRGGRTYADSVKGRFTISRDNAKNSVYLQMNSLKPEDTAVYYCNKRFYPEHYYWGQGTQVTVSS”, the entry is “high polyreactivity”.
In the case of “HVQLVESGGGLVQAGGSLRLSCAASGYTFVPYAMGWYRQAPGKERELVAAISSSGGDTYYADSVKGRFTISRDNAKNTVYLQMNSLKPEDTAVYYCNTGVYVWQYWYYGFDYWGQGTQVTVSS”, the “polyreactivity (PSR sort gate)” value is “low polyreactivity”.
As for “HVQLVESGGGLVQAGGSLRLSCAHSGIIFRTNAMGWYRQAPGKEREFVAAISAGATRKYYADSVKGRFTISRDTAKNTVYLQMNSLKPEDTAVYYCAAASGYDYWGQGTQVTVSS”, the entry is “high polyreactivity”; as for “HVQLVESGGVLVQAGGSLRLSCAATGSIFRNNAMGWYRQAPGKERDLVAAISSSGGSTFYADSVKGRFTISRDNAKNTVYLQMNSQNPEDTAVYYCAARVRSELIKRYDWGQGTQVTVSS”, “high polyreactivity”; as for “HVQLVESGRGLVEAGGSLRLSCAAYGLGCTVNAMVWYIQAPGTERELVARIVWPGITYADSVKGRFTISLDNAMNTVYLQMNSQKPEDTAVYYCAAVWLHHSYYAKYDYWGQRTQVTVSS”, “low polyreactivity”.
As for “HVQLVETVGGLVQAGGSLRLSCAASGSNFDPNAMGWYRQAPVKERELVAAISWSGGSTYYADSVKGRFTISRDNAKNNVYLQMHSLKPEDTAVYYCNAQFYDSYSYTNDYWGQGTQVTVSS”, the “polyreactivity (PSR sort gate)” value is “low polyreactivity”.
Under “HVQVVESGGGLVQEGGSLRLICAASGYLFAYYAMGWFRQAPGKERELVAPIRSGGSTNYADSVKGRFTISRDNAKNTVYLQMNSLKPEDTAVYYCAKGDRRWTLCRPDYDYWGQGTQVTVAS” stands “low polyreactivity”; under “IIQAGGSLRLSCAASVRTFSGYAMGWYRQAPGKERELIADITSGGSTYYADSVKGRFTISRDNAKNTVYLQMNSLKPEDTAVFYCCRDDRLAGDYWGQGTQVNVSS”, “low polyreactivity”.
Under “KLQLVESGRGLVQEGGSLRLSCAASGSTFGANAMGWYRHAPGKASEFVAAISRSGVRTYYADSVKGRFTISRDNAKNTVYLQMNSQKPEDTAVYYCAAYGYWWTYTRDDYWGQGTQGTVSS” stands “low polyreactivity”.
Regarding “KVHLVESGGGLVQAGGSLRLSCPAAGFTLDQYAMGWYRQAPGKEMELVAVITSGVNTYYADSVKGRFTISRDNAKNTVYLQMNSLKPEDTAVYYCAKDVCDPFYDPFEYWGQGTQVTVSS”, the “polyreactivity (PSR sort gate)” value is recorded as “low polyreactivity”.
